From patent US20210388087A1
Residue numbers refer to the chain shown, from its start. Names may count otherwise.

B1: H183/L072 VH N53A (antibody, name in Kabat numbering, V domains shown)
VH: QVQLVESGGGLVQPGRSLRLSCAASGFTFSNAWMHWVRQAPGKGLEWVAQIKDKGAAYAAYYAPSVKGRFTISRDDSKNSIYLQMNSLKTEDTAVYYCHYVHYASASTVLPAFGVDAWGQGTTVTVSS
VL: DIVMTQSPLSLPVTPGEPASISCQASQELVHMNRNTYLHWYQQKPGQAPRLLIYKVSNRFPGVPDRFSGSGSGTDFTLKISRVEAEDVGVYYCAQGTSVPFTFGQGTKLEIK
B2: H183/L072 VH M34G (antibody, name in Kabat numbering, V domains shown)
VH: B1 VH with M34G, A56N
VL: B1 VL
B3: H183/L072 VH F29G (antibody, name in Kabat numbering, V domains shown)
VH: B1 VH with F29G, A56N
VL: B1 VL
B4: H183/L072 VH N53V (antibody, name in Kabat numbering, V domains shown)
VH: B1 VH with A56V
VL: B1 VL
B5: H183/L072 VH N53I (antibody, name in Kabat numbering, V domains shown)
VH: B1 VH with A56I
VL: B1 VL
B6: H183/L072 VH D52aV (antibody, name in Kabat numbering, V domains shown)
VH: B1 VH with D53V, A56N
VL: B1 VL
B7: H183/L072 VH K52I (antibody, name in Kabat numbering, V domains shown)
VH: B1 VH with K52I, A56N
VL: B1 VL
B8: H183/L072 VH D52aG (antibody, name in Kabat numbering, V domains shown)
VH: B1 VH with D53G, A56N
VL: B1 VL
B9: H183/L072 VH D52aM (antibody, name in Kabat numbering, V domains shown)
VH: B1 VH with D53M, A56N
VL: B1 VL
B10: H183/L072 VH H35L (antibody, name in Kabat numbering, V domains shown)
VH: B1 VH with H35L, A56N
VL: B1 VL
B11: H183/L072 VH W33N (antibody, name in Kabat numbering, V domains shown)
VH: B1 VH with W33N, A56N
VL: B1 VL
B12: H183/L072 VH A54P (antibody, name in Kabat numbering, V domains shown)
VH: B1 VH with A56N, A57P
VL: B1 VL
B13: H183/L072 VH F29N (antibody, name in Kabat numbering, V domains shown)
VH: B1 VH with F29N, A56N
VL: B1 VL
B14: H183/L072 VH W33G (antibody, name in Kabat numbering, V domains shown)
VH: B1 VH with W33G, A56N
VL: B1 VL
B15: H183/L072 VH N53M (antibody, name in Kabat numbering, V domains shown)
VH: B1 VH with A56M
VL: B1 VL
B16: H183/L072 VH W33P (antibody, name in Kabat numbering, V domains shown)
VH: B1 VH with W33P, A56N
VL: B1 VL
B17: H183/L072 VH N53G (antibody, name in Kabat numbering, V domains shown)
VH: B1 VH with A56G
VL: B1 VL
B18: H183/L072 VH T28N (antibody, name in Kabat numbering, V domains shown)
VH: B1 VH with T28N, A56N
VL: B1 VL
B19: H183/L072 VH D52aP (antibody, name in Kabat numbering, V domains shown)
VH: B1 VH with D53P, A56N
VL: B1 VL
B20: H183/L072 VH I51P (antibody, name in Kabat numbering, V domains shown)
VH: B1 VH with I51P, A56N
VL: B1 VL
B21: H183/L072 VH H35M (antibody, name in Kabat numbering, V domains shown)
VH: B1 VH with H35M, A56N
VL: B1 VL
B22: H183/L072 VH N53L (antibody, name in Kabat numbering, V domains shown)
VH: B1 VH with A56L
VL: B1 VL
B23: H183/L072 VH F29Q (antibody, name in Kabat numbering, V domains shown)
VH: B1 VH with F29Q, A56N
VL: B1 VL
B24: H183/L072 VH H35P (antibody, name in Kabat numbering, V domains shown)
VH: B1 VH with H35P, A56N
VL: B1 VL
B25: H183/L072 VH Y55I (antibody, name in Kabat numbering, V domains shown)
VH: B1 VH with A56N, Y58I
VL: B1 VL
B26: H183/L072 VH M34N (antibody, name in Kabat numbering, V domains shown)
VH: B1 VH with M34N, A56N
VL: B1 VL
B27: H183/L072 VH A32P (antibody, name in Kabat numbering, V domains shown)
VH: B1 VH with A32P, A56N
VL: B1 VL
B28: H183/L072 VH W33Q (antibody, name in Kabat numbering, V domains shown)
VH: B1 VH with W33Q, A56N
VL: B1 VL
B29: H183/L072 VH D52aI (antibody, name in Kabat numbering, V domains shown)
VH: B1 VH with D53I, A56N
VL: B1 VL
B30: H183/L072 VH A57L (antibody, name in Kabat numbering, V domains shown)
VH: B1 VH with A56N, A60L
VL: B1 VL
B31: H183/L072 VH N53P (antibody, name in Kabat numbering, V domains shown)
VH: B1 VH with A56P
VL: B1 VL
B32: H183/L072 VH H35G (antibody, name in Kabat numbering, V domains shown)
VH: B1 VH with H35G, A56N
VL: B1 VL
B33: H183/L072 VH W33V (antibody, name in Kabat numbering, V domains shown)
VH: B1 VH with W33V, A56N
VL: B1 VL
B34: H183/L072 VH G26V (antibody, name in Kabat numbering, V domains shown)
VH: B1 VH with G26V, A56N
VL: B1 VL
B35: H183/L072 VH K52G (antibody, name in Kabat numbering, V domains shown)
VH: B1 VH with K52G, A56N
VL: B1 VL
B36: H183/L072 VH K52P (antibody, name in Kabat numbering, V domains shown)
VH: B1 VH with K52P, A56N
VL: B1 VL
B37: H183/L072 VH Q50P (antibody, name in Kabat numbering, V domains shown)
VH: B1 VH with Q50P, A56N
VL: B1 VL
B38: H183/L072 VH D52aN (antibody, name in Kabat numbering, V domains shown)
VH: B1 VH with D53N, A56N
VL: B1 VL
B39: H183/L072 VH D52aL (antibody, name in Kabat numbering, V domains shown)
VH: B1 VH with D53L, A56N
VL: B1 VL
B40: H183/L072 VH Y55P (antibody, name in Kabat numbering, V domains shown)
VH: B1 VH with A56N, Y58P
VL: B1 VL
B41: H183/L072 VH N31M (antibody, name in Kabat numbering, V domains shown)
VH: B1 VH with N31M, A56N
VL: B1 VL
B42: H183/L072 VH Q50G (antibody, name in Kabat numbering, V domains shown)
VH: B1 VH with Q50G, A56N
VL: B1 VL
B43: H183/L072 VH W33I (antibody, name in Kabat numbering, V domains shown)
VH: B1 VH with W33I, A56N
VL: B1 VL
B44: H183/L072 VH H35I (antibody, name in Kabat numbering, V domains shown)
VH: B1 VH with H35I, A56N
VL: B1 VL
B45: H183/L072 VH W33M (antibody, name in Kabat numbering, V domains shown)
VH: B1 VH with W33M, A56N
VL: B1 VL
B46: H183/L072 VH Y55V (antibody, name in Kabat numbering, V domains shown)
VH: B1 VH with A56N, Y58V
VL: B1 VL
B47: H183/L072 VH K52V (antibody, name in Kabat numbering, V domains shown)
VH: B1 VH with K52V, A56N
VL: B1 VL

Target: Human CD137 ECD (human)
Assay: single mutant vs template dBBDu183H

Chain of Human CD137 ECD (human) (chain, as listed by the source limits assumed): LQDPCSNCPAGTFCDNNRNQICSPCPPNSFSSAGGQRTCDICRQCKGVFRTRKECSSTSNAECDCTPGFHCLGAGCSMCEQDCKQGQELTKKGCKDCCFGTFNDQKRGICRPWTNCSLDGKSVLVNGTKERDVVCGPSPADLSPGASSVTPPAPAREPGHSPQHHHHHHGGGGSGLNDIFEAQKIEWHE

Row | fold change of affinity [fold] | Binder
1 | 0 | B1
2 | 0 | B2
3 | 0 | B3
4 | 0 | B4
5 | 0 | B5
6 | 0 | B6
7 | 0 | B7
8 | 0 | B8
9 | 0 | B9
10 | 0 | B10
11 | 0 | B11
12 | 0 | B12
13 | 0 | B13
14 | 0 | B14
15 | 0 | B15
16 | 0 | B16
17 | 0 | B17
18 | 0 | B18
19 | 0 | B19
20 | 0 | B20
21 | 0 | B21
22 | 0 | B22
23 | 0 | B23
24 | 0 | B24

Row | fold change of affinity [fold] | Binder
25 | 0 | B25
26 | 0 | B26
27 | 0 | B27
28 | 0 | B28
29 | 0 | B29
30 | 0 | B30
31 | 0 | B31
32 | 0 | B32
33 | 0 | B33
34 | 0 | B34
35 | 0 | B35
36 | 0 | B36
37 | 0 | B37
38 | 0 | B38
39 | 0 | B39
40 | 0 | B40
41 | 0 | B41
42 | 0 | B42
43 | 0 | B43
44 | 0 | B44
45 | 0 | B45
46 | 0 | B46
47 | 0 | B47
